Assays:
[1] = substrate: COc1cc(/C=C/CO)ccc1O; assay: HPLC of glucoside product, double reciprocal plot; assay type: biochemical, Pyrus x bretschneideri; details: 2.5 mM UDP-glucose, 50 mM MgSO4, 200 mM KCl, 100 mM PBS pH 7.2–7.4, 35 °C, 0.1% β-mercaptoethanol, pH 7.0
From the text: (§1) HPLC of glucoside product, double reciprocal plot on PbUGT72AJ2

[2] = substrate: COc1cc(/C=C/CO)cc(OC)c1O; assay: HPLC of glucoside product, double reciprocal plot; assay type: biochemical, Pyrus x bretschneideri; details: 2.5 mM UDP-glucose, 50 mM MgSO4, 200 mM KCl, 100 mM PBS pH 7.2–7.4, 35 °C, 0.1% β-mercaptoethanol, pH 7.0
From the text: as §1

B1: PbUGT72AJ2 (Pyrus x bretschneideri) (protein)
chain: MSSKPHAAILCSPGLGHLIPSLELAKRLVTHRNFTVTIFAIPSPTSKTESELLKAAATPKFFDIIELPPPDISGCVGPNVAVVTLLAVMMREVRPAFRSAILGMEYSLRPTVLIVDLFSTESLSIGDELGIPKYVYVASTAWLVALTVYVPVFDREMEGEYVDQTEPLRIPGCKPVQPDDVVDPMLDRTDQQYLEYVRIGTNFPKSDGILMNTWEDLEHKTIDALRDEGLLGRVAKVPIYPIGPLTRSVQSAGSTSTGLREEGLFNWLDKQPCESVIFVSLGSGGTVSFEQMTEMAWGLELSKQRFIWVVRPPAKSADAAYFTSGNRDDDPSTYLPKGFLTRTHDVGLVVHLWAPQVDILSHPSIGGFWSHCGWNSSLESITNEVPMIVWPLHAEQRINATMLTEELGVAVRSKVLPLKKVVDREEIKEMVRKIMVDKDGQAIRGRVKELKLSAAKAWSVGGSSYNAISQISSGNQRKC
Km [1]: 117.83 ± 7.94 µM | Vmax [1]: 4.23 µM/min/mg | kcat [1]: 0.55 ± 0.02 s⁻¹ | kcat/Km [1]: 4670 ± 130 M⁻¹ s⁻¹ | Km [2]: 144.13 ± 22.31 µM | Vmax [2]: 3.32 µM/min/mg | kcat [2]: 0.44 ± 0.03 s⁻¹ | kcat/Km [2]: 3050 ± 250 M⁻¹ s⁻¹

— PMC9318811, “PbUGT72AJ2-Mediated Glycosylation Plays an Important Role in Lignin Formation and Stone Cell Development in Pears (Pyrus bretschneideri)” (International Journal of Molecular Sciences, 2022)
